This note sets out measurements from patent US20190142860A1, “NUCLEIC ACID BASED TIA-1 INHIBITORS” (Aquinnah Pharmaceuticals, Inc., priority 2015, published 2019).

Test [1] concerns the target Nucleolysin TIA-1 (endogenous mouse TIA1) (mouse) (UniProt P52912). Put plainly: TIA1 IP-MS, WT1 cortex.
Test [2] has the same target. As to the kind of experiment: TIA1 IP-MS, tau KO 2 cortex.
Test [3] shares this target. As to the kind of experiment: TIA1 IP-MS, WT2 cortex.
Test [4] has the same target. Put plainly: TIA1 IP-MS, tau KO 1 cortex.
Test [5] shares this target. Put plainly: TIA1 IP-MS, WT3 cortex.
Test [6] has the same target. Put plainly: TIA1 IP-MS, tau KO 3 cortex.

UniProt P52912, sequence (P52912 whole entry): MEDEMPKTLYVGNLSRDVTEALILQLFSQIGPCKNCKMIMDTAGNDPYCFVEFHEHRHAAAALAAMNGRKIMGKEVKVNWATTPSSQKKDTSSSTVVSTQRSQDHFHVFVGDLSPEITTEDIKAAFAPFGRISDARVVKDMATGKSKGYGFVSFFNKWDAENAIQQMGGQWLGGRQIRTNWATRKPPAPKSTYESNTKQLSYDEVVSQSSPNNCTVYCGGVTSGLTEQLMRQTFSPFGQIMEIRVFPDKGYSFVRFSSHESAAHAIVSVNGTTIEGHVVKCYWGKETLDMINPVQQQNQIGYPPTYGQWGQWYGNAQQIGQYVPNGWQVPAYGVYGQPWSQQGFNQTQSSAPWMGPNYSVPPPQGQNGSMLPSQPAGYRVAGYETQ

In the case of “Isoform 2 of NAD-dependent protein deacetylase sirtuin-2 (from UniProt Q8VDQ8 1-352)”, the total ion current (normalized to TIA1 = 1000) in test [1] came to 0; in test [2], 0; in test [3], 175; in test [4], 0; in test [5] it was 48.2; in test [6], 0.

With “Isoform 2 of Paraspeckle component 1 (from UniProt Q8R326 1-466)”, the total ion current (normalized to TIA1 = 1000) in test [1] was found to be 0; in test [2], 0; in test [3], 98.3; in test [4], 0; in test [5], 0; in test [6], 239.

For the substance “Isoform 2 of Phosphatidylinositol-binding clathrin assembly protein (from UniProt Q7M6Y3 2-597)”, the total ion current (normalized to TIA1 = 1000) was determined as 0 in test [1]; 31.4 in test [2]; 20.1 in test [3]; 0 in test [4]; 0 in test [5]; 0 in test [6].

Take “Isoform 2 of Plasminogen activator inhibitor 1 RNA-binding protein (from UniProt Q9CY58 1-392)”: the total ion current (normalized to TIA1 = 1000) in test [1] worked out at 0; in test [2], 99.8; in test [3], 136; in test [4] it was 0; in test [5], 0; in test [6] it was 0.

Take “Isoform 2 of Protein-L-isoaspartate(D-aspartate)-O-methyltransferase (from UniProt P23506 2-228)”: the total ion current (normalized to TIA1 = 1000) in test [1] was 0; in test [2] it was 91.6; in test [3], 98.7; in test [4] it was 0; in test [5], 8.56; in test [6] it was 0.

“Isoform 2 of Sarcoplasmic/endoplasmic reticulum calcium ATPase 2 (from UniProt O55143 1-998)”: the total ion current (normalized to TIA1 = 1000) in test [1] was 0; in test [2], 21.5; in test [3], 36.6; in test [4], 0; in test [5], 0; in test [6] it was 0.

Turning to “Isoform 2 of Septin-4 (from UniProt P28661 1-459)”, the total ion current (normalized to TIA1 = 1000) in test [1] turned out to be 0; in test [2], 52.7; in test [3], 94.7; in test [4], 0; in test [5], 75.6; in test [6] it was 0.

On to “Isoform 2 of Sideroflexin-3 (from UniProt Q91V61 1-288)”, for which the total ion current (normalized to TIA1 = 1000) was 0 in test [1]; 43 in test [2]; 46.1 in test [3]; 0 in test [4]; 0 in test [5]; 0 in test [6].

With “Isoform 2 of Sodium-driven chloride bicarbonate exchanger (from UniProt Q5DTL9 1-1088)”, the total ion current (normalized to TIA1 = 1000) in test [1] turned out to be 0; in test [2], 0; in test [3] it was 269; in test [4], 0; in test [5] it was 0; in test [6], 0.

Turning to “Isoform 4 of Phosphatase and actin regulator 1 (from UniProt Q2M3X8 1-649)”, the total ion current (normalized to TIA1 = 1000) amounted to 0 in test [1]; 0 in test [2]; 48.2 in test [3]; 0 in test [4]; 0 in test [5]; 0 in test [6].

As for “Isoform A1-I of V-type proton ATPase 116 kDa subunit a isoform 1 (from UniProt Q9Z1G4 1-838)”, the total ion current (normalized to TIA1 = 1000) in test [1] stood at 0; in test [2], 13; in test [3] it was 108; in test [4], 0; in test [5] it was 240; in test [6], 0.

As to “Isoform A of Cytosolic acyl coenzyme A thioester hydrolase (from UniProt Q91V12 1-338)”, the total ion current (normalized to TIA1 = 1000) in test [1] worked out at 0; in test [2], 190; in test [3], 372; in test [4] it was 0; in test [5], 515; in test [6] it was 0.

Regarding “Isoform B of AP-2 complex subunit alpha-1 (from UniProt P17426 1-955)”, the total ion current (normalized to TIA1 = 1000) in test [1] is 0; in test [2] it was 248; in test [3], 159; in test [4], 0; in test [5], 68.8; in test [6], 0.

For the substance “Isoform Beta-II of Protein kinase C beta type (from UniProt P68404 2-673)”, the total ion current (normalized to TIA1 = 1000) in test [1] turned out to be 0; in test [2], 13; in test [3], 148; in test [4], 0; in test [5] it was 0; in test [6], 0.

As for “Isoform Cytoplasmic of Fumarate hydratase, mitochondrial (from UniProt P97807 1-467)”, the total ion current (normalized to TIA1 = 1000) in test [1] amounted to 0; in test [2] it was 49.2; in test [3] it was 57.7; in test [4] it was 0; in test [5], 0; in test [6], 0.

Consider “Isoform Glt-1A of Excitatory amino acid transporter 2 (from UniProt P43006 1-569)”, for which the total ion current (normalized to TIA1 = 1000) is 0 in test [1]; 96.4 in test [2]; 187 in test [3]; 0 in test [4]; 298 in test [5]; 0 in test [6].

Take “Isoform I of Septin-6 (from UniProt Q9R1T4 2-427)”: the total ion current (normalized to TIA1 = 1000) in test [1] stood at 0; in test [2], 35.6; in test [3], 53.3; in test [4], 0; in test [5], 0; in test [6] it was 0.

Regarding “Isoform M1 of Pyruvate kinase PKM (from UniProt P52480 1-531)”, the total ion current (normalized to TIA1 = 1000) in test [1] was 0; in test [2] it was 891; in test [3], 1130; in test [4], 0; in test [5] it was 722; in test [6], 0.

In the case of “Isoform Mt-VDAC1 of Voltage-dependent anion-selective channel protein 1 (from UniProt Q60932 2-283)”, the total ion current (normalized to TIA1 = 1000) in test [1] is 0; in test [2] it was 0; in test [3] it was 184; in test [4] it was 0; in test [5], 101; in test [6], 0.

As for “Isovaleryl-CoA dehydrogenase, mitochondrial (from UniProt Q9JHI5 31-424)”, the total ion current (normalized to TIA1 = 1000) in test [1] was 7.28; in test [2], 0; in test [3] it was 0; in test [4], 5.22; in test [5], 0; in test [6] it was 0.

For the substance “Ketimine reductase mu-crystallin (from UniProt O54983 1-313)”, the total ion current (normalized to TIA1 = 1000) in test [1] was 8.5; in test [2], 0; in test [3], 0; in test [4], 0; in test [5] it was 0; in test [6], 0.

Regarding “LanC-like protein 1 (from UniProt O89112 2-399)”, the total ion current (normalized to TIA1 = 1000) in test [1] came to 0; in test [2], 97.8; in test [3] it was 0; in test [4], 0; in test [5] it was 218; in test [6] it was 0.
